Results on 1 molecule are retold here after paper PMC8173049 (2021).

The target in the assay is HAdV-D26 capsid (replication-defective, E1-deleted vector particle with a GFP-luciferase fusion expression … (human adenovirus D26)). In words: SPR. In general terms: Surface plasmon resonance follows binding to a sensor surface in real time, without labels.

B1: human lactoferrin (natural protein)
chain: GRRRSVQWCAVSQPEATKCFQWQRNMRKVRGPPVSCIKRDSPIQCIQAIAENRADAVTLDGGFIYEAGLAPYKLRPVAAEVYGTERQPRTHYYAVAVVKKGGSFQLNELQGLKSCHTGLRRTAGWNVPIGTLRPFLNWTGPPEPIEAAVARFFSASCVPGADKGQFPNLCRLCAGTGENKCAFSSQEPYFSYSGAFKCLRDGAGDVAFIRESTVFEDLSDEAERDEYELLCPDNTRKPVDKFKDCHLARVPSHAVVARSVNGKEDAIWNLLRQAQEKFGKDKSPKFQLFGSPSGQKDLLFKDSAIGFSRVPPRIDSGLYLGSGYFTAIQNLRKSEEEVAARRARVVWCAVGEQELRKCNQWSGLSEGSVTCSSASTTEDCIALVLKGEADAMSLDGGYVYTAGKCGLVPVLAENYKSQQSSDPDPNCVDRPVEGYLAVAVVRRSDTSLTWNSVKGKKSCHTAVDRTAGWNIPMGLLFNQTGSCKFDEYFSQSCAPGSDPRSNLCALCIGDEQGENKCVPNSNERYYGYTGAFRCLAENAGDVAFVKDVTVLQNTDGNNNEAWAKDLKLADFALLCLDGKRKPVTEARSCHLAMAPNHAVVSRMDKVERLKQVLLHQQAKFGRNGSDCPDKFCLFQSETKNLLFNDNTECLARLHGKTTYEKYLGPQYVAGITNLKKCSTSPLLEACEFLRK
One may read the Kd as the free concentration of one partner at which half of the binding sites on the other are occupied at equilibrium, for simple one-to-one binding. The low end stands for higher affinity, the high end for lower affinity. In turn, B1 displayed a Kd of 2550 nM. In other words, the single-digit micromolar range.
